Molecular target: Staphylococcal enterotoxin B (SEB) (Staphylococcus aureus, UniProt P01552 28-266)
Sequence (P01552 28-266): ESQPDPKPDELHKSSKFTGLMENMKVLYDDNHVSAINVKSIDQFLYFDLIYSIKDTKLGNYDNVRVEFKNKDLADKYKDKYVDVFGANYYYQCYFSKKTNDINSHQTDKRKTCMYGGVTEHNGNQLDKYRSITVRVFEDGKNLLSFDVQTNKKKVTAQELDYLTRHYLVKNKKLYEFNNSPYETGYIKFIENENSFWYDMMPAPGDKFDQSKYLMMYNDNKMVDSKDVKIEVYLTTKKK

B1: SEB aptamer (ssDNA)
DNA: GGTATTGAGGGTCGCATCCACTGGTCGTTGTTGTCTGTTGTCTGTTATGTTGTTTCGTGATGGCTCTAACTCTCCTCT
B1: binds.

B2: SEB aptamer1 (6-FAM) (ssDNA)
DNA: GGTATTGAGGGTCGCATCCACTGGTCGTTGTTGTCTGTTGTCTGTTATGTTGTTTCGTGATGGCTCTAACTCTCCTCT
B2: binds.
